In the Human Domainome abundance scans (Beltran et al. 2025):

B1: Gamma-crystallin S, residues 96 to 176; numbered along this chain, P22914 (parent)
chain: IQIFEKGDFSGQMYETTEDCPSIMEQFHMREIHSCKVLEGVWIFYELPNYRGRQYLLDKKEYRKPIDWGAASPAVQSFRRI

Variants of: B1
Test: abundance fitness (aPCA) (normalised: wild type 0, dead -1); higher = more abundant; growth selection in yeast, the domain comes from the species named
Details: Homo sapiens

Abundance fitness: each site, then its substitutions
E25: W -0.434
C35: Y -0.217, P -0.788, T 0.074, G 0.048, S 0.052, R -0.987, V 0.021, W -0.006, H -0.769, M 0.111, A -0.027, E -0.952, Q -0.803, K -1.01, F 0.133, L 0.102, N -0.529, I -0.039
M29: S 0.063, L -0.084, D 0.034, K -0.006, C 0.132, W 0.027, G 0.053, H 0.124, P 0.058, N 0.226, Q 0.048, E 0.109, A 0.048, V 0.034, Y 0.025, I -0.015, F 0.036, T 0.109
W42: E -0.363, Q -0.906, Y 0.046, F -0.051, G -1.02, C -0.156, H -0.461, V -0.042, D -1.06, K -0.787, T -0.709, M -0.231, R -0.986, P -1.04, L -0.241, S -0.901, N -0.445, A -0.157
E31: G 0.015, L 0.056, Q 0.02, A 0.066, F 0.041, Y 0.116, P -0.056, T 0.106, H 0.069, I 0.05, M -0.039, S -0.034, N -0.008, D 0.138, C -0.13, W 0.084, K -0.034, V 0.072
H33: A -0.047, Y 0.02, T 0.06, S 0.03, Q -0.023, F 0.093, P 0.057, N -0.01, G 0.012, R -0.047, E 0.054, V -0.013, I -0.002, C 0.035, M 0.027, W 0.062, L -0.021, K -0.12, D 0.077
G40: M -0.464, W -0.312, P -0.028, R -0.322, T -0.251, C -0.158, Y -0.137, I -0.759, D -0.012, A -0.051, F -0.261, K -0.337, V -1.06, S -0.051, N -0.14, H -0.252, L -0.739
F44: Q -0.602, N -0.868, P -1.11, L 0.005, T -0.195, I -0.215, K -0.929, R -1.02, G 0.015, Y -0.104, A -0.007, C 0.035, H -0.441, E -0.951, W -0.141, S -0.272, M 0.064, V 0.009
H28: D 0.027, R -0.047, F 0.332, S 0.042, C 0.031, Q 0.037, L 0.035, W 0.05, E 0.006, Y 0.035, P 0.137, I 0.079, M -0.05, A 0.045, K 0.07, N 0.009, V -0.011, T 0.036, G 0.048
V37: N 0.087, Y -0.769, D -0.166, C 0.075, L 0.023, I -0.142, K 0.027, G -0.075, A 0.081, M 0.049, R 0.042, T 0.004, Q -0.105
R30: K 0.055, I -0.099, Q 0.11, Y -0.02, S -0.07, H 0.026, M 0.047, E 0.066, F 0.005, W 0.105, N 0.044, C 0.009, V -0.144, T 0.011, P 0, D 0.009, G 0, L -0.031, A 0.061
I32: R -1.01, V -0.029, L 0.025, P 0.051, Q -0.809, K -0.755, C 0.015, S -0.087, T -0.027, N -0.223, F 0.09, W -0.193, E -0.348, M -0.001
I43: S 0.015, M 0.074, Q 0.056, H -0.162, K -0.123, E 0.117, W -0.032, V -0.013, F 0.008, P -1.1, R 0.016, G 0.028, Y 0.047, N 0.007
K36: M 0.024, I -0.045, Y 0.068, G -0.171, R 0.022, N -0.037, C -0.078, H -0.013, E -0.021, D -0.019, T -0.019, F 0.1, P -1.19, S 0.015, W 0.15, A 0.017, Q -0.002
Q26: W 0, E 0.079, A -0.018, D 0.073, M -0.04, I -0.065, P -0.021, K -0.079, F -0.033, S -0.035, G 0.044, C -0.123, T -0.047, V 0.009, R 0.009, Y 0.082
S34: A -0.004, C -0.047, D -0.898, L -0.967, T -0.601, R -0.623, H -0.641, I -0.844, F -1.06, M -0.779, P -1.08, N -0.434, G 0.06, K -0.954, Q -0.485, E -0.772, Y -0.646
V41: Q 0.055, D -0.01, G 0.105, M 0.041, A 0.063, R 0.047, W -0.132, P -0.051, T 0.096, L 0.023, S -0.026, F -0.001, I -0.101, C -0.112, K 0.052, Y -0.162
E39: V 0.061, Q -0.03, N 0.079, M -0.014, T -0.012, P -0.227, R 0.054, H -0.1, W -0.06, S 0.035, A 0.059, Y -0.045, F -0.025, C -0.039, D -0.028, K 0
F27: L 0.015, K -0.018, G 0.017, A 0.033, Y -0.011, M 0.014, P -0.001, V 0.014, D -0.156, S 0.006, W 0.03, N -0.141, C -0.094, Q 0.021, I 0.104, H 0.101, R 0.02
M24: W 0.115, R -0.005, Y -0.095, T 0.007, S -0.088
L38: P 0.1, F -0.017, Q -0.072, A 0.032, K -0.016, C -0.067, W -0.024, T 0.012, H 0.043, E -0.004, R 0.004, M -0.046, I -0.15, S -0.014, G 0.02, Y -0.079
Y45: A -0.397, F -0.04, E -0.794, I -1.1, H -0.123, C -0.273, G -0.669, D -1.03
